Values of other authors in paper PMC6868133 (Scientific Reports, 2019).
Like-named read-outs stand apart in the source and are kept apart here.

What was measured:
[1] = system: fasting plasma glucose levels; conditions: humans
Source text: The goal of the current study was to evaluate the pharmacokinetic properties of a single-dose of PT320 in healthy nonhuman primates. […] Systemic Exenatide ...

[2] = rhesus monkey, in vivo, sc
[3] = human, in vivo
[4] = Long-Acting (> 24 hr), ref supplement [3-5]

Exenatide
minimally effective concentration (level required to reduce fasting plasma glucose levels) [1]: approximately 50 pg/ml | terminal disappearance half-life from plasma [2]: 0.78 to 1.94 h | patients with higher-titer antibodies (≥625) [3]: 5% | patients with low anti-Exenatide antibody titers (≤125) [3]: 32%

Semaglutide
Half Life (T1/2) [4]: 140 to 170 h

albiglutide
Half Life (T1/2) [4]: 140 to 170 h | T1/2 (long-acting GLP-1R agonists): 140 to 170 h

dulaglutide
Half Life (T1/2) [4]: 96 h | T1/2 (long-acting GLP-1R agonists): 96 h

lixisenatide
Half Life (T1/2) (Short-Acting (< 24 hr), ref supplement [1,2]): 3 h | T1/2 (short-acting GLP-1R agonist, administered once daily): 3 h
